Results as given in article PMC9482650, “Quantitative fragmentomics allow affinity mapping of interactomes” (Nature Communications, 2022).

How the values were obtained:
Assay in all cases: holdup assay
Parameters in all cases: key: below the threshold = too weak to quantify, mostly under pKd 3.1 to 4
Details in all cases: plain residues with an end cap or a label only (N-terminal biotin on a linker: ttds)
CNKSR1, Q969H4 = target: T1, CNKSR1, Q969H4
T1 sequence (Q969H4 191-295, limits assumed, looked up): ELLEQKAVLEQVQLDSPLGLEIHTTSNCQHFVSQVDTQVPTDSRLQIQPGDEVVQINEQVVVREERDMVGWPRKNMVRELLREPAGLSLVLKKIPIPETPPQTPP

GIPC3, Q8TF64 = target: GIPC3, Q8TF64
O00233 = target: O00233
O15021 = target: O15021
O43166 = target: O43166
Q12923 = target: Q12923
Q13009 = target: Q13009
Q13368 = target: Q13368
Q5TCQ9 = target: Q5TCQ9
Q70Z35 = target: Q70Z35
Q8TB45 = target: Q8TB45
Q8TDM6 = target: Q8TDM6
Q92614 = target: Q92614
Q96FS4 = target: Q96FS4
Q96HC4 = target: Q96HC4
Q96JB8 = target: Q96JB8
Q96JY6 = target: Q96JY6
Q96SB3 = target: Q96SB3
Q9H190 = target: Q9H190
Q9NPB6 = target: Q9NPB6
Q9NR12 = target: Q9NR12
Q9UDY2 = target: Q9UDY2
Q9UMS6 = target: Q9UMS6
Q9Y3R0 = target: Q9Y3R0
RGS12, O14924 = target: T2, RGS12, O14924
T2 sequence (O14924 17-108, limits assumed, looked up): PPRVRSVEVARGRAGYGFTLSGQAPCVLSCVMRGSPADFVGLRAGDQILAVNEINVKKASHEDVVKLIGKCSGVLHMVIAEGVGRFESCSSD

Sequence of GIPC3, Q8TF64 (Q8TF64 107-202): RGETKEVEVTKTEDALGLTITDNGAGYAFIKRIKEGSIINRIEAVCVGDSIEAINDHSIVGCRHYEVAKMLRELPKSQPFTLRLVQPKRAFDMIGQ

**Q.** Which results are given for NYWPGKETQL [SLCO1C1, Q9NYB5]?
**A.** pKd (CNKSR1, Q969H4): below the threshold; pKd (GIPC3, Q8TF64): below the threshold; pKd (O00233): below the threshold; pKd (O15021): below the threshold; pKd (O43166): below the threshold; pKd (Q12923): below the threshold; pKd (Q13009): below the threshold; pKd (Q13368): below the threshold; pKd (Q5TCQ9): below the threshold; pKd (Q70Z35): below the threshold; pKd (Q8TB45): below the threshold; pKd (Q8TDM6): below the threshold; pKd (Q92614): below the threshold; pKd (Q96FS4): below the threshold; pKd (Q96HC4): below the threshold; pKd (Q96JB8): below the threshold; pKd (Q96JY6): below the threshold; pKd (Q96SB3): below the threshold; pKd (Q9H190): below the threshold; pKd (Q9NPB6): below the threshold; pKd (Q9NR12): below the threshold; pKd (Q9UDY2): below the threshold; pKd (Q9UMS6): below the threshold; pKd (Q9Y3R0): below the threshold; pKd (RGS12, O14924): below the threshold

**Q.** Which pKd (CNKSR1, Q969H4) does the source give for IQREDQETAV [DGKZ, Q13574] here?
**A.** The pKd was “below the threshold”.

**Q.** And the pKd (GIPC3, Q8TF64)?
**A.** The pKd was “below the threshold”.

**Q.** And the pKd (O00233)?
**A.** The pKd was “below the threshold”.

**Q.** What about the pKd (O15021) of the same binder?
**A.** Its pKd is “below the threshold”.

**Q.** What about the pKd (O43166) of the same binder?
**A.** Its pKd is “below the threshold”.

**Q.** What about the pKd (Q12923) of the same binder?
**A.** The pKd was “below the threshold”.

**Q.** What about the pKd (Q13009) of the same binder?
**A.** Its pKd is “below the threshold”.

**Q.** What about the pKd (Q13368) of the same binder?
**A.** Its pKd is “below the threshold”.

**Q.** What about the pKd (Q5TCQ9) of the same binder?
**A.** The pKd was “below the threshold”.

**Q.** And the pKd (Q70Z35)?
**A.** The pKd was “below the threshold”.

**Q.** What about the pKd (Q8TB45) of the same binder?
**A.** The pKd was “below the threshold”.

**Q.** And the pKd (Q8TDM6)?
**A.** The pKd was “below the threshold”.

**Q.** And the pKd (Q92614)?
**A.** The pKd was “below the threshold”.

**Q.** And the pKd (Q96FS4)?
**A.** Its pKd is “below the threshold”.

**Q.** What about the pKd (Q96HC4) of the same binder?
**A.** The pKd was “below the threshold”.

**Q.** What about the pKd (Q96JB8) of the same binder?
**A.** The pKd was “below the threshold”.

**Q.** And the pKd (Q96JY6)?
**A.** The pKd was “below the threshold”.

**Q.** And the pKd (Q96SB3)?
**A.** The pKd was “below the threshold”.

**Q.** And the pKd (Q9H190)?
**A.** The pKd was “below the threshold”.

**Q.** What about the pKd (Q9NPB6) of the same binder?
**A.** The pKd was “below the threshold”.

**Q.** What about the pKd (Q9NR12) of the same binder?
**A.** The pKd was “below the threshold”.

**Q.** What about the pKd (Q9UDY2) of the same binder?
**A.** The pKd was “below the threshold”.

**Q.** What about the pKd (Q9UMS6) of the same binder?
**A.** The pKd was “below the threshold”.

**Q.** And the pKd (Q9Y3R0)?
**A.** Its pKd is “below the threshold”.

**Q.** And the pKd (RGS12, O14924)?
**A.** Its pKd is “below the threshold”.

**Q.** What does the source list for DPLTPSRSQL [DGKK, Q5KSL6]?
**A.** pKd (CNKSR1, Q969H4): 4.3; pKd (GIPC3, Q8TF64): below the threshold; pKd (O00233): below the threshold; pKd (O15021): below the threshold; pKd (O43166): below the threshold; pKd (Q12923): below the threshold; pKd (Q13009): below the threshold; pKd (Q13368): below the threshold; pKd (Q5TCQ9): below the threshold; pKd (Q70Z35): below the threshold; pKd (Q8TB45): below the threshold; pKd (Q8TDM6): below the threshold; pKd (Q92614): below the threshold; pKd (Q96FS4): below the threshold; pKd (Q96HC4): below the threshold; pKd (Q96JB8): below the threshold; pKd (Q96JY6): below the threshold; pKd (Q96SB3): below the threshold; pKd (Q9H190): below the threshold; pKd (Q9NPB6): below the threshold; pKd (Q9NR12): below the threshold; pKd (Q9UDY2): below the threshold; pKd (Q9UMS6): below the threshold; pKd (Q9Y3R0): below the threshold; pKd (RGS12, O14924): below the threshold
